The text below walks through data of US20090324590A1.

For the test, the target named is recombinant wild type myostatin. Kind of test: cell-based or functional assay.

In the case of “myostatin antagonist 300 (amino acids 267-300 of bovine myostatin with N-terminal and C-terminal tags) (peptide)”, the p-FoxO1 expression (Western blot, normalised to total FoxO1) in C2C12 myotubes; myostatin 6 ug/mL with 300 at 30, 60, 90 or 120 ug/mL for 24 hours; concentration of 300 giving maximal rescue was found to be 90 µg/mL.
